The record followed here is patent US8691944.

pKd: −log10 of the molar value.

In experiment [1] the target is platelet-derived growth factor-BB (PDGF-BB) (UniProt P01127). The experiment in a line: equilibrium binding.
Experiment [2] concerns the target basic fibroblast growth factor (bFGF, FGF-2) (UniProt P09038). The experiment in a line: binding assay, method not restated.
For experiment [3], the target named is platelet-derived growth factor-BB (PDGF-BB) (UniProt P01127). The experiment can be described thus: binding assay, method not restated.
Experiment [4] addresses transforming growth factor-β1 (TGF-β1) (UniProt P01137). The experiment in a line: binding assay, method not restated.
The target of experiment [5] is vascular endothelial growth factor A (VEGF-A) (UniProt P15692). The experiment in a line: binding assay, method not restated.
Sequence of vascular endothelial growth factor A (VEGF-A) (P15692 other isoform, or with tags, fused parts or gaps limits assumed): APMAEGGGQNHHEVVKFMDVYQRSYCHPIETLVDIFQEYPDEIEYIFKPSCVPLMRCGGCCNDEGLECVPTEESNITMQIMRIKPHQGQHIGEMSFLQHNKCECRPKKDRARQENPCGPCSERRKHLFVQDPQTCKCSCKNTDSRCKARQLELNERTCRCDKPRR
For experiment [6], the target named is basic fibroblast growth factor (bFGF, FGF-2) (UniProt P09038). The experiment can be described thus: equilibrium or kinetic binding, not said which.
Sequence of basic fibroblast growth factor (bFGF, FGF-2) (P09038 143-288 limits assumed): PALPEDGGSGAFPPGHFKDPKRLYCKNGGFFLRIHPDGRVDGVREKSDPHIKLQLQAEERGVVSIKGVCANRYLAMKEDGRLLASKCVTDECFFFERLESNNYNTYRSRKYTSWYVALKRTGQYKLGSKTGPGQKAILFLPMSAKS
In experiment [7] the target is transforming growth factor-β1 (TGF-β1) (UniProt P01137). The experiment in a line: equilibrium or kinetic binding, not said which.
Sequence of transforming growth factor-β1 (TGF-β1) (P01137 279-390 limits assumed): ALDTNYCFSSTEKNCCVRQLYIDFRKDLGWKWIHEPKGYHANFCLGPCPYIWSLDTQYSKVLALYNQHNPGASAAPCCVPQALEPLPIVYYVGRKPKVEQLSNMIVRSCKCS

Sequence of platelet-derived growth factor-BB (PDGF-BB) (P01127 82-190 limits assumed): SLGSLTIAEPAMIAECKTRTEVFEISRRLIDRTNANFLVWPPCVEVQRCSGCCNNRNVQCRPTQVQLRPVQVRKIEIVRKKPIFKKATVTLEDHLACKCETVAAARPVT

As a reminder, the pKd is the negative decadic logarithm of the Kd, by convention in mol/L. A higher pKd goes with a low Kd. As for “IIICS, variably-spliced domain of fibronectin (from UniProt P02751 2083-2202)”, the pKd in experiment [1] is 6.46; in experiment [2], 7.00; in experiment [3] it was 7.00; in experiment [4] it was 7.00; in experiment [5], 7.00; in experiment [6], 7.24. In experiment [7], the pKd is 7.13.
